Positions count from the first letter of the chain named.

Sequences and labels used below:
B1: NRP1-1 (VHH)
VHH: EVQLVESGGGLVQPGGSLRLSCAASGRTFRRYAMGWFRQAPGKEREFVASISRSGTLTRYADSVKGRFTISADNSKNTAYLQMNSLKPEDTAVYYCAAKTGAFSYGSLWWMSRAYNWGQGTLVTVSS
B2: NRP1-79 (VHH)
VHH: EVQLVESGGGLVQPGGSLRLSCAASGRTYYAMGWFRQAPGKEREFVAAISWGGGLTVYADSVKGRFTISADNSKNTAYLQMNSLKPEDTAVYYCASSGWLTDYYYAMDVWGQGTLVTVSS
B3: NRP1-76 (VHH)
VHH: EVQLVESGGGLVQPGGSLRLSCAASGITFRRYAMGWFRQAPGKEREIVATIWWTFDAPYYADSVKGRFTISADNSKNTAYLQMNSLKPEDTAVYYCAAYQAGWGDWGQGTLVTVSS
B4: NRP1-72 (VHH)
VHH: B3 VHH with I27R, I47F, W52S, T54S, F55G, D56A, A57L, P58T, Y59H, A101R
B5: NRP1-83 (VHH)
VHH: B3 VHH with I27S, T28I, F29G, R31E, Y32V, I47L
B6: NRP1-2 (VHH)
VHH: B3 VHH with I27G, R30T, R31K, Y32Q, A33T, I47F
B7: NRP1-61 (VHH)
VHH: B3 VHH with I27R, R30S, I47W, T50G, W52S, F55G, D56G, A57I, P58T, A101R
B8: NRP1-74 (VHH)
VHH: B3 VHH with I27S, F29L, R31D, A33T, I47F
B9: NRP1-17 (VHH)
VHH: EVQLVESGGGLVQPGGSLRLSCAASGRFSRINSMGWFRQAPGKERELVAAIMWSGGSTKYADSVKGRFTISADNSKNTAYLQMNSLKPEDTAVYYCAAGSPSRLVNMWQYNWGQGTLVTVSS
B10: NRP1-91 (VHH)
VHH: EVQLVESGGGLVQPGGSLRLSCAASGNIFINNAMGWFRQAPGKERELVAAITSSSGRRWYADSVKGRFTISADNSKNTAYLQMNSLKPEDTAVYYCAAGSPSRLVNMWQYNWGQGTLVTVSS
B11: NRP1-41 (VHH)
VHH: B9 VHH with L47S, M52S, S54N, T58I, K59Y
B12: NRP1-96 (VHH)
VHH: EVQLVESGGGLVQPGGSLRLSCAASGLTYTMSWFRQAPGKEREFVAGFSGSGSVTSYADSVKGRFTISADNSKNTAYLQMNSLKPEDTAVYYCAAFDGYSGSDWGQGTLVTVSS
B13: NRP1-78 (VHH)
VHH: EVQLVESGGGLVQPGGSLRLSCAASGRTFRSYPMGWFRQAPGKEREWVASITSSATAYADSVKGRFTISADNSKNTAYLQMNSLKPEDTAVYYCALGPVRRSRLEWGQGTLVTVSS
B14: NRP1-87 (VHH)
VHH: EVQLVESGGGLVQPGGSLRLSCAASGRIFTMGWFRQAPGKEREFVASITTDGNTLYADSVKGRFTISADNSKNTAYLQMNSLKPEDTAVYYCARWVGASAYHYGMDVWGQGTLVTVSS
B15: NRP1-88 (VHH)
VHH: EVQLVESGGGLVQPGGSLRLSCAASGGIFSRYDMGWFRQAPGKEREFVATITSTGDTYADSVKGRFTISADNSKNTAYLQMNSLKPEDTAVYYCARLGGNSEYYYYYGMDVWGQGTLVTVSS
B16: NRP1-80 (VHH)
VHH: EVQLVESGGGLVQPGGSLRLSCAASGSIDRINAMGWFRQAPGKEREFVASIWWTFDAPYYADSVKGRFTISADNSKNTAYLQMNSLKPEDTAVYYCATWTTTWGRNRDWGQGTLVTVSS
B17: NRP1-89 (VHH)
VHH: EVQLVESGGGLVQPGGSLRLSCAASGINFSRYGMGWFRQAPGKEREWVSAISSGGGSITTYADSVKGRFTISADNSKNTAYLQMNSLKPEDTAVYYCARHNSGWHFDYWGQGTLVTVSS
B18: NRP1-7 (VHH)
VHH: EVQLVESGGGLVQPGGSLRLSCAASGRIFIIYAMGWFRQAPGKERELVAAITRTGGRPCYADSVKGRFTISADNSKNTAYLQMNSLKPEDTAVYYCAARRMLSPEGAHPDWGQGTLVTVSS
B19: NRP1-85 (VHH)
VHH: EVQLVESGGGLVQPGGSLRLSCAASGSRFSGRFNILNMGWFRQAPGKERESVAAINWSGGTSTYYADSVKGRFTISADNSKNTAYLQMNSLKPEDTAVYYCAAGSNIGGSRWRYDWGQGTLVTVSS
B20: NRP1-90 (VHH)
VHH: EVQLVESGGGLVQPGGSLRLSCAASGGIFSINDMGWFRQAPGKEREFVARITSGGSTNYADSVKGRFTISADNSKNTAYLQMNSLKPEDTAVYYCAKADYYDSSDFDSWGQGTLVTVSS
B21: NRP1-71 (VHH)
VHH: EVQLVESGGGLVQPGGSLRLSCAASGRTFSNAAMGWFRQAPGKERELVARITPGGNTNYADSVKGRFTISADNSKNTAYLQMNSLKPEDTAVYYCAARRIVNVEGAYRDWGQGTLVTVSS
B22: NRP1-77 (VHH)
VHH: B21 VHH with T28I, S30I, A32N, T52S, G54A, N56S, N58Y
B23: NRP1-100 (VHH)
VHH: B21 VHH with T28S, F29V, N31T, A32Y, A33G, R50S, T52S, P53R, G54F, N56R
B24: NRP1-65 (VHH)
VHH: B21 VHH with F29I, L47W, R50A, P53S, N56Y, N58H
B25: NRP1-46 (VHH)
VHH: B21 VHH with R27F, S30R, A32F, A33G, L47I, T52S, G54S, N58Y
B26: NRP1-48 (VHH)
VHH: B21 VHH with R27F, S30R, A32F, A33G, P53G, N56S, N58A
B27: NRP1-51 (VHH)
VHH: B21 VHH with R27F, T28A, A32Y, A33H
B28: NRP1-59 (VHH)
VHH: B21 VHH with F29I, R50S, T52S, P53R, G54F, N56R
B29: NRP1-37 (VHH)
VHH: EVQLVESGGGLVQPGGSLRLSCAASGRTFSIYAMGWFRQAPGKERELVAAISRTGGSTYYADSVKGRFTISADNSKNTAYLQMNSLKPEDTAVYYCAADRMYRPVGNQYDWGQGTLVTVSS
B30: NRP1-47 (VHH)
VHH: B29 VHH with T28S, F29S, S30R, I31Y, L47F, S52K, R53W, T54S, G56T
B31: NRP1-114 (VHH)
VHH: B29 VHH with T28S, F29S, S30R, I31Y, L47F, S52R, R53W, T54S, S57T, Y59F
B32: NRP1-99 (VHH)
VHH: B29 VHH with F29S, S30N, L47F, T54S, S57L, T58K, Y59S
B33: NRP1-106 (VHH)
VHH: B29 VHH with D99R, M101I, Y102V, R103N, P104V, V105E, N107A, Q108Y, Y109R
B34: NRP1-81 (VHH)
VHH: B29 VHH with T28S, F29S, S30R, I31Y, L47F, S52R, R53W, G56M, S57N, Y59H
B35: NRP1-75 (VHH)
VHH: B29 VHH with F29I, I31V, S52N, T54S, G56K
B36: NRP1-86 (VHH)
VHH: EVQLVESGGGLVQPGGSLRLSCAASGNIFINNAMGWFRQAPGKERELVAAITSSSGRRWYADSVKGRFTISADNSKNTAYLQMNSLKPEDTAVYYCAADRMYRPVGNQYDWGQGTLVTVSS
B37: NRP1-92 (VHH)
VHH: EVQLVESGGGLVQPGGSLRLSCAASGLLFSSYDMGWFRQAPGKEREFVAAITSGGRKNYADSVKGRFTISADNSKNTAYLQMNSLKPEDTAVYYCARYDYSGGLTFDYWGQGTLVTVSS

For this assay, the target named is T1, neuropilin-1 (NRP1) on HEK293 cells overexpressing NRP1 (UniProt O14786 22-923, limits assumed).
T1 construct: whole, on cells
The experiment in a line: flow cytometry, HEK293-NRP1 vs HEK293.
Regarding B1, the “100 nM FACS (MFI Ratio)” value was 15.4.
The same measure for B2: 13.2; for B3: 3.1; for B4: 3.
With B5, the “100 nM FACS (MFI Ratio)” value was 6.9.
The same measure for B6: 15.7; for B7: 0.9; for B8: 5.8.
With B9 the figure was 1960; with B10, 2.7; with B11, 6.1.
Regarding B12, the “100 nM FACS (MFI Ratio)” value was 1.4.
As to B13, the “100 nM FACS (MFI Ratio)” value was determined as 3.6.
Regarding B14, the “100 nM FACS (MFI Ratio)” value turned out to be 3.7.
With B15 the figure was 2.8.
On to B16, for which the “100 nM FACS (MFI Ratio)” value was found to be 6.9.
Take B17: the “100 nM FACS (MFI Ratio)” value is 1.8.
B18: the “100 nM FACS (MFI Ratio)” value was 233.
For the molecule B19, the “100 nM FACS (MFI Ratio)” value was 5.
In the case of B20, the “100 nM FACS (MFI Ratio)” value was 1.
For the molecule B21, the “100 nM FACS (MFI Ratio)” value amounted to 0.4.
With B22, the “100 nM FACS (MFI Ratio)” value was 4.9.
On to B23, for which the “100 nM FACS (MFI Ratio)” value came to 0.6.
B24: the “100 nM FACS (MFI Ratio)” value worked out at 0.7.
With B25 the figure was 2.2.
The same measure for B26: 0.7; for B27: 0.8.
On to B28, for which the “100 nM FACS (MFI Ratio)” value was 0.4.
The same measure for B29: 8.8; for B30: 6.6; for B31: 8.7.
For B32, the “100 nM FACS (MFI Ratio)” value was 0.8.
Turning to B33, the “100 nM FACS (MFI Ratio)” value was determined as 2.2.
The same measure for B34: 5.
Take B35: the “100 nM FACS (MFI Ratio)” value was 4.2.
For the molecule B36, the “100 nM FACS (MFI Ratio)” value was found to be 2.4.
With B37 the figure was 6.

The record behind these values is US20230265198A1 (TWIST BIOSCIENCE, published 2023).
